The record followed here is PMC8130932 (PLoS Pathogens, 2021).

The target of assay [1] is SARS-CoV-2 spike glycoprotein of wild-type virus, in infected Vero E6 cells (SARS-CoV-2 …, UniProt P0DTC2). Put plainly: cell-based or functional assay.
The target of assay [2] is T1, MERS spike glycoprotein S1+S2 extracellular domain (MERS coronavirus, isolate EMC/2012 (by …, UniProt K0BRG7)).
T1 construct: source: bought: Sino Biologicals, baculovirus-insect cells
In words: ELISA.

The target of assay [3] is T2, Human coronavirus OC43 spike glycoprotein S1+S2 extracellular domain (Human coronavirus OC43, AVR40344.1 (by …)).
T2 construct: source: bought: Sino Biologicals
T2 chain: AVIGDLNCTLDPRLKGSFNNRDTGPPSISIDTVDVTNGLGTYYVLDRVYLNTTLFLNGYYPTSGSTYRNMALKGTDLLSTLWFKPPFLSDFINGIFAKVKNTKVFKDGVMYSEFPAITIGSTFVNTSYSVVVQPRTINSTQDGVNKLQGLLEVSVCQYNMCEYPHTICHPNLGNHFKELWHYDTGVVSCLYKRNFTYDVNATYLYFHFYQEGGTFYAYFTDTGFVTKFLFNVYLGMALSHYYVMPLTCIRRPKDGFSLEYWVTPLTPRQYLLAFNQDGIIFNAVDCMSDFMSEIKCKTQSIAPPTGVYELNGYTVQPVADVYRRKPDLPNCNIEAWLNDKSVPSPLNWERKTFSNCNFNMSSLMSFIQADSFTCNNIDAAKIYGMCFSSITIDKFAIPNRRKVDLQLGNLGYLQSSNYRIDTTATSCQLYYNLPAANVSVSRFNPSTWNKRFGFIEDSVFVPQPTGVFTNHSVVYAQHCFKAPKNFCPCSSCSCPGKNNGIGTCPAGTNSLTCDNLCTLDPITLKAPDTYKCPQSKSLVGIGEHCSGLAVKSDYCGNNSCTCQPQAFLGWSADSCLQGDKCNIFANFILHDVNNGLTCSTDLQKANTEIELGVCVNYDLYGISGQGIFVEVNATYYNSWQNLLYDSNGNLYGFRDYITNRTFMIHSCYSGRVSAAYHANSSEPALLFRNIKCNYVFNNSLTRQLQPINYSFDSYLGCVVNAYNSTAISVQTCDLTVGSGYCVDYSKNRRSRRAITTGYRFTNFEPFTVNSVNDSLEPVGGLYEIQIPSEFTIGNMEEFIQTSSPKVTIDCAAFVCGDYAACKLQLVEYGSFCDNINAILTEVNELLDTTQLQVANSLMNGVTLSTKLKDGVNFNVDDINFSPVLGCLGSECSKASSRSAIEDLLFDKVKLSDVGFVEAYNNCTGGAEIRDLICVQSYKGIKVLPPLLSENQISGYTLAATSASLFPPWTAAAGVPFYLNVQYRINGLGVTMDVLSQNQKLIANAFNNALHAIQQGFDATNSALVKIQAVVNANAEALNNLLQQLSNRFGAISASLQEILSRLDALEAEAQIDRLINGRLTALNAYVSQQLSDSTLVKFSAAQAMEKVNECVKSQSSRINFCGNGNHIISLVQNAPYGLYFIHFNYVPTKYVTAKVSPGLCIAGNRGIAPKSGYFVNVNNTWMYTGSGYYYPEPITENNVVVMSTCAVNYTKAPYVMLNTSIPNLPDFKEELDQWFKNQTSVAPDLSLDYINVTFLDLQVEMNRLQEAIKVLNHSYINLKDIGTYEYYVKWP
In words: ELISA.

Assay [4] deals with T3, SARS-CoV-2 spike S2 subunit, recombinant (SARS-CoV-2, reference sequence, UniProt P0DTC2).
T3 construct: source: bought: Sino Biologicals, baculovirus-insect cells
In words: ELISA.

Assay [5] deals with T4, SARS-CoV-2 RBD (amino acids 340-538) on MDCK-SIAT1 cells (SARS-CoV-2 (so in the source)).
T4 construct: also called MDCK-RBD; source: MDCK-SIAT1, stably transduced (lentiviral vector), on the cell surface
Put plainly: flow cytometry on cells. The conditions noted are these: one partner purified.

The target in assay [6] is T5, SARS-CoV-2 NTD on MDCK-SIAT1 cells (SARS-CoV-2 (so in the source)).
T5 construct: also called MDCK-NTD
In words: flow cytometry on cells. The settings on record: one partner purified.

Positions count from the first letter of the chain named.

B1: FB 1E (antibody, V domains shown)
VH: EVQLVESGAEVKKPGESLKISCQGSGYRFNSYWIAWVRQMPGKGLEWMGSIFPTDSDIRYNPSFQGQVTISADKSISIAYLQWSSLKASDTAIYYCARHWASMVRGVIRASHYYGMDVWGQGTTVTVSS
VL: QSVLTQPPSASGSPGQSVTISCSGASSDIGDYNYVSWYQQLPGKAPKLLIYEVTKRPSGVPDRFSGSKSGNTASLTVSGLQADDEADYYCSSYAFGGSDIRVFGGGTKLAVL
notes: source: HEK293T, transfected; culture supernatant or purified
Regarding B1, the “PRNT EC50, wild-type SARS-CoV-2 (hCoV-19/England/02/2020) on Vero E6 cells” value in assay [1] came to 36 nM. Also, the OD450 came out at 1.01 OD450 in assay [2], 2.34 OD450 in assay [3] and 1.2 OD450 in assay [4].

B2: FB 9D (antibody, V domains shown)
VH: B1 VH with E1Q, I58V, I78F
VL: B1 VL with S2P, D31K, I100T, A110T
notes: as for B1
With B2, the figures for the OD450 in assay [2], in assay [3] and in assay [4] were 1.5 OD450, 2.13 OD450 and 1.27 OD450, respectively. In addition, the binding result in assay [5] and in assay [6] was “no binding” throughout.
